Biological target: T1, his-tagged F110A variant of human ferrochelatase (FECH), recombinant from E. coli (human, UniProt P22830 55-423, F110A)
T1 sequence (looked up): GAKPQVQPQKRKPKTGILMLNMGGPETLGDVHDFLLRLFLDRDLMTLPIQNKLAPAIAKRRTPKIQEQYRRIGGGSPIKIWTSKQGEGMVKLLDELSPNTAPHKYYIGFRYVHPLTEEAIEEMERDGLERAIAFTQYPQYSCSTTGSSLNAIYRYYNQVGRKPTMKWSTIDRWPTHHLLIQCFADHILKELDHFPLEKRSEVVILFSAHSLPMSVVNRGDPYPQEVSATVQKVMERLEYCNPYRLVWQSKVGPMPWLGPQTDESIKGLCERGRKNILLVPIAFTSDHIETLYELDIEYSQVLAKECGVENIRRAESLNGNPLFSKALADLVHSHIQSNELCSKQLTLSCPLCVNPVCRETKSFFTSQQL
Assay: pull-down

B1: non-tagged full length human PGRMC1, recombinant from E. coli (natural protein)
chain: not shown
- fold of PGRMC1 recovered (against wild-type FECH): > 2 fold

— publication PMC5278647 (Biochemistry, 2016)
